Measurements published in patent publication US20240400654A1.
Where “and” joins values, the source holds several entries; their conditions need not be identical. Equal entries are not always repeated.

Assays:
[1] = target: HRgpA-6H (Porphyromonas gingivalis) (UniProt P28784); assay: ELISA, FASEBA Fab supernatant on coated HRgpA-6H
[2] = target: HRgpA-6H (Porphyromonas gingivalis) (UniProt P28784); assay: ELISA on coated HRgpA-6H, OD relative to parental Fab
[3] = target: HRgpA-6H (Porphyromonas gingivalis) (UniProt P28784); assay: ELISA, FASEBA screening, coated HRgpA-6H; variant OD over parental WT Fab OD
[4] = target: HRgpA-6H (Porphyromonas gingivalis) (UniProt P28784); assay: ELISA, FASEBA screening, coated HRgpA-6H 0.0625 ug/ml

Binder	OD450 nm [1]	Ratio OD(Variant)/OD(WT) [2]	Ratio OD(Variant)/OD(WT) [3]	OD450 nm [4]
KB001 mouse Fab variant VL Y97S (Fab, V domains shown) VH: EVQLKQSGPGLVAPSQSLSITCTVSGFSLSIYSVHWVRQPPGKGLEWLGMIWGGGSSDYNSALKSRLSISKDNSKSQVFLKMNSLQTDDTAMYYCARNGNFYAMDYWGQGTSVTVSS VL: QIVLTQSPAIMSASLGERVTMTCTASSSVSSSFLHWYQQKPGSSPQLWIYSTSNLASGVPARFSGSGSGTSYSLTISSMEAEDAATYYCHQYHHSPSIYTFGGGTKLEIK	0.633	0.802 fold		
KB001 mouse Fab variant VL Y97R (Fab, V domains shown) VH: EVQLKQSGPGLVAPSQSLSITCTVSGFSLSIYSVHWVRQPPGKGLEWLGMIWGGGSSDYNSALKSRLSISKDNSKSQVFLKMNSLQTDDTAMYYCARNGNFYAMDYWGQGTSVTVSS VL: QIVLTQSPAIMSASLGERVTMTCTASSSVSSSFLHWYQQKPGSSPQLWIYSTSNLASGVPARFSGSGSGTSYSLTISSMEAEDAATYYCHQYHHSPRIYTFGGGTKLEIK	0.769	0.975 fold		
KB001 parental mouse Fab FASEBA variant VH K64G (Fab, V domains shown) VH: EVQLKQSGPGLVAPSQSLSITCTVSGFSLSIYSVHWVRQPPGKGLEWLGMIWGGGSSDYNSALGSRLSISKDNSKSQVFLKMNSLQTDDTAMYYCARNGNFYAMDYWGQGTSVTVSS VL: QIVLTQSPAIMSASLGERVTMTCTASSSVSSSFLHWYQQKPGSSPQLWIYSTSNLASGVPARFSGSGSGTSYSLTISSMEAEDAATYYCHQYHHSPYIYTFGGGTKLEIK			0.981	0.811
KB001 mouse Fab variant VL Y97V (Fab, V domains shown) VH: EVQLKQSGPGLVAPSQSLSITCTVSGFSLSIYSVHWVRQPPGKGLEWLGMIWGGGSSDYNSALKSRLSISKDNSKSQVFLKMNSLQTDDTAMYYCARNGNFYAMDYWGQGTSVTVSS VL: QIVLTQSPAIMSASLGERVTMTCTASSSVSSSFLHWYQQKPGSSPQLWIYSTSNLASGVPARFSGSGSGTSYSLTISSMEAEDAATYYCHQYHHSPVIYTFGGGTKLEIK	0.662	0.839 fold		
KB001 mouse Fab variant VL Y97K (Fab, V domains shown) VH: EVQLKQSGPGLVAPSQSLSITCTVSGFSLSIYSVHWVRQPPGKGLEWLGMIWGGGSSDYNSALKSRLSISKDNSKSQVFLKMNSLQTDDTAMYYCARNGNFYAMDYWGQGTSVTVSS VL: QIVLTQSPAIMSASLGERVTMTCTASSSVSSSFLHWYQQKPGSSPQLWIYSTSNLASGVPARFSGSGSGTSYSLTISSMEAEDAATYYCHQYHHSPKIYTFGGGTKLEIK	0.654	0.829 fold		
KB001 mouse Fab variant VL I98L (Fab, V domains shown) VH: EVQLKQSGPGLVAPSQSLSITCTVSGFSLSIYSVHWVRQPPGKGLEWLGMIWGGGSSDYNSALKSRLSISKDNSKSQVFLKMNSLQTDDTAMYYCARNGNFYAMDYWGQGTSVTVSS VL: QIVLTQSPAIMSASLGERVTMTCTASSSVSSSFLHWYQQKPGSSPQLWIYSTSNLASGVPARFSGSGSGTSYSLTISSMEAEDAATYYCHQYHHSPYLYTFGGGTKLEIK	0.836	0.955 fold		
KB001 parental mouse Fab FASEBA variant VH K64D (Fab, V domains shown) VH: EVQLKQSGPGLVAPSQSLSITCTVSGFSLSIYSVHWVRQPPGKGLEWLGMIWGGGSSDYNSALDSRLSISKDNSKSQVFLKMNSLQTDDTAMYYCARNGNFYAMDYWGQGTSVTVSS VL: QIVLTQSPAIMSASLGERVTMTCTASSSVSSSFLHWYQQKPGSSPQLWIYSTSNLASGVPARFSGSGSGTSYSLTISSMEAEDAATYYCHQYHHSPYIYTFGGGTKLEIK			0.944	0.781
KB001 parental mouse Fab FASEBA variant VH K64Q (Fab, V domains shown) VH: EVQLKQSGPGLVAPSQSLSITCTVSGFSLSIYSVHWVRQPPGKGLEWLGMIWGGGSSDYNSALQSRLSISKDNSKSQVFLKMNSLQTDDTAMYYCARNGNFYAMDYWGQGTSVTVSS VL: QIVLTQSPAIMSASLGERVTMTCTASSSVSSSFLHWYQQKPGSSPQLWIYSTSNLASGVPARFSGSGSGTSYSLTISSMEAEDAATYYCHQYHHSPYIYTFGGGTKLEIK			0.954	0.789
KB001 parental mouse Fab FASEBA variant VH K64H (Fab, V domains shown) VH: EVQLKQSGPGLVAPSQSLSITCTVSGFSLSIYSVHWVRQPPGKGLEWLGMIWGGGSSDYNSALHSRLSISKDNSKSQVFLKMNSLQTDDTAMYYCARNGNFYAMDYWGQGTSVTVSS VL: QIVLTQSPAIMSASLGERVTMTCTASSSVSSSFLHWYQQKPGSSPQLWIYSTSNLASGVPARFSGSGSGTSYSLTISSMEAEDAATYYCHQYHHSPYIYTFGGGTKLEIK			0.953 and 0.975 and 0.883	0.788 and 0.806 and 0.73
KB001 mouse Fab variant VL T100I (Fab, V domains shown) VH: EVQLKQSGPGLVAPSQSLSITCTVSGFSLSIYSVHWVRQPPGKGLEWLGMIWGGGSSDYNSALKSRLSISKDNSKSQVFLKMNSLQTDDTAMYYCARNGNFYAMDYWGQGTSVTVSS VL: QIVLTQSPAIMSASLGERVTMTCTASSSVSSSFLHWYQQKPGSSPQLWIYSTSNLASGVPARFSGSGSGTSYSLTISSMEAEDAATYYCHQYHHSPYIYIFGGGTKLEIK	0.493	0.942 fold		
KB001 mouse Fab variant VL T100V (Fab, V domains shown) VH: EVQLKQSGPGLVAPSQSLSITCTVSGFSLSIYSVHWVRQPPGKGLEWLGMIWGGGSSDYNSALKSRLSISKDNSKSQVFLKMNSLQTDDTAMYYCARNGNFYAMDYWGQGTSVTVSS VL: QIVLTQSPAIMSASLGERVTMTCTASSSVSSSFLHWYQQKPGSSPQLWIYSTSNLASGVPARFSGSGSGTSYSLTISSMEAEDAATYYCHQYHHSPYIYVFGGGTKLEIK	0.461 and 0.428	0.881 fold and 0.818 fold		
KB001 mouse Fab variant VL T100P (Fab, V domains shown) VH: EVQLKQSGPGLVAPSQSLSITCTVSGFSLSIYSVHWVRQPPGKGLEWLGMIWGGGSSDYNSALKSRLSISKDNSKSQVFLKMNSLQTDDTAMYYCARNGNFYAMDYWGQGTSVTVSS VL: QIVLTQSPAIMSASLGERVTMTCTASSSVSSSFLHWYQQKPGSSPQLWIYSTSNLASGVPARFSGSGSGTSYSLTISSMEAEDAATYYCHQYHHSPYIYPFGGGTKLEIK	0.46	0.879 fold		
KB001 mouse Fab variant VL I98R (Fab, V domains shown) VH: EVQLKQSGPGLVAPSQSLSITCTVSGFSLSIYSVHWVRQPPGKGLEWLGMIWGGGSSDYNSALKSRLSISKDNSKSQVFLKMNSLQTDDTAMYYCARNGNFYAMDYWGQGTSVTVSS VL: QIVLTQSPAIMSASLGERVTMTCTASSSVSSSFLHWYQQKPGSSPQLWIYSTSNLASGVPARFSGSGSGTSYSLTISSMEAEDAATYYCHQYHHSPYRYTFGGGTKLEIK	0.726 and 0.722	0.83 fold and 0.825 fold		
KB001 mouse Fab variant VL I98V (Fab, V domains shown) VH: EVQLKQSGPGLVAPSQSLSITCTVSGFSLSIYSVHWVRQPPGKGLEWLGMIWGGGSSDYNSALKSRLSISKDNSKSQVFLKMNSLQTDDTAMYYCARNGNFYAMDYWGQGTSVTVSS VL: QIVLTQSPAIMSASLGERVTMTCTASSSVSSSFLHWYQQKPGSSPQLWIYSTSNLASGVPARFSGSGSGTSYSLTISSMEAEDAATYYCHQYHHSPYVYTFGGGTKLEIK	0.832 and 0.838 and 0.787	0.951 fold and 0.958 fold and 0.899 fold		
KB001 mouse Fab variant VL Y97I (Fab, V domains shown) VH: EVQLKQSGPGLVAPSQSLSITCTVSGFSLSIYSVHWVRQPPGKGLEWLGMIWGGGSSDYNSALKSRLSISKDNSKSQVFLKMNSLQTDDTAMYYCARNGNFYAMDYWGQGTSVTVSS VL: QIVLTQSPAIMSASLGERVTMTCTASSSVSSSFLHWYQQKPGSSPQLWIYSTSNLASGVPARFSGSGSGTSYSLTISSMEAEDAATYYCHQYHHSPIIYTFGGGTKLEIK	0.667	0.845 fold		
KB001 parental mouse Fab FASEBA variant VH K64L (Fab, V domains shown) VH: EVQLKQSGPGLVAPSQSLSITCTVSGFSLSIYSVHWVRQPPGKGLEWLGMIWGGGSSDYNSALLSRLSISKDNSKSQVFLKMNSLQTDDTAMYYCARNGNFYAMDYWGQGTSVTVSS VL: QIVLTQSPAIMSASLGERVTMTCTASSSVSSSFLHWYQQKPGSSPQLWIYSTSNLASGVPARFSGSGSGTSYSLTISSMEAEDAATYYCHQYHHSPYIYTFGGGTKLEIK			0.803	0.664
KB001 parental mouse Fab FASEBA variant VH K64M (Fab, V domains shown) VH: EVQLKQSGPGLVAPSQSLSITCTVSGFSLSIYSVHWVRQPPGKGLEWLGMIWGGGSSDYNSALMSRLSISKDNSKSQVFLKMNSLQTDDTAMYYCARNGNFYAMDYWGQGTSVTVSS VL: QIVLTQSPAIMSASLGERVTMTCTASSSVSSSFLHWYQQKPGSSPQLWIYSTSNLASGVPARFSGSGSGTSYSLTISSMEAEDAATYYCHQYHHSPYIYTFGGGTKLEIK			0.948	0.784
KB001 mouse Fab variant VL Y97F (Fab, V domains shown) VH: EVQLKQSGPGLVAPSQSLSITCTVSGFSLSIYSVHWVRQPPGKGLEWLGMIWGGGSSDYNSALKSRLSISKDNSKSQVFLKMNSLQTDDTAMYYCARNGNFYAMDYWGQGTSVTVSS VL: QIVLTQSPAIMSASLGERVTMTCTASSSVSSSFLHWYQQKPGSSPQLWIYSTSNLASGVPARFSGSGSGTSYSLTISSMEAEDAATYYCHQYHHSPFIYTFGGGTKLEIK	0.75 and 0.756	0.951 fold and 0.958 fold		
KB001 mouse Fab variant VL I98M (Fab, V domains shown) VH: EVQLKQSGPGLVAPSQSLSITCTVSGFSLSIYSVHWVRQPPGKGLEWLGMIWGGGSSDYNSALKSRLSISKDNSKSQVFLKMNSLQTDDTAMYYCARNGNFYAMDYWGQGTSVTVSS VL: QIVLTQSPAIMSASLGERVTMTCTASSSVSSSFLHWYQQKPGSSPQLWIYSTSNLASGVPARFSGSGSGTSYSLTISSMEAEDAATYYCHQYHHSPYMYTFGGGTKLEIK	0.729	0.833 fold		
KB001 mouse Fab variant VL Y97L (Fab, V domains shown) VH: EVQLKQSGPGLVAPSQSLSITCTVSGFSLSIYSVHWVRQPPGKGLEWLGMIWGGGSSDYNSALKSRLSISKDNSKSQVFLKMNSLQTDDTAMYYCARNGNFYAMDYWGQGTSVTVSS VL: QIVLTQSPAIMSASLGERVTMTCTASSSVSSSFLHWYQQKPGSSPQLWIYSTSNLASGVPARFSGSGSGTSYSLTISSMEAEDAATYYCHQYHHSPLIYTFGGGTKLEIK	0.739	0.937 fold		
